The experiment concerns the target denatured human type I collagen (gelatin) (human) (UniProt P02452). Kind of experiment: ELISA.
Chain of denatured human type I collagen (gelatin) (human) (P02452 162-1218, chain 1 of 2): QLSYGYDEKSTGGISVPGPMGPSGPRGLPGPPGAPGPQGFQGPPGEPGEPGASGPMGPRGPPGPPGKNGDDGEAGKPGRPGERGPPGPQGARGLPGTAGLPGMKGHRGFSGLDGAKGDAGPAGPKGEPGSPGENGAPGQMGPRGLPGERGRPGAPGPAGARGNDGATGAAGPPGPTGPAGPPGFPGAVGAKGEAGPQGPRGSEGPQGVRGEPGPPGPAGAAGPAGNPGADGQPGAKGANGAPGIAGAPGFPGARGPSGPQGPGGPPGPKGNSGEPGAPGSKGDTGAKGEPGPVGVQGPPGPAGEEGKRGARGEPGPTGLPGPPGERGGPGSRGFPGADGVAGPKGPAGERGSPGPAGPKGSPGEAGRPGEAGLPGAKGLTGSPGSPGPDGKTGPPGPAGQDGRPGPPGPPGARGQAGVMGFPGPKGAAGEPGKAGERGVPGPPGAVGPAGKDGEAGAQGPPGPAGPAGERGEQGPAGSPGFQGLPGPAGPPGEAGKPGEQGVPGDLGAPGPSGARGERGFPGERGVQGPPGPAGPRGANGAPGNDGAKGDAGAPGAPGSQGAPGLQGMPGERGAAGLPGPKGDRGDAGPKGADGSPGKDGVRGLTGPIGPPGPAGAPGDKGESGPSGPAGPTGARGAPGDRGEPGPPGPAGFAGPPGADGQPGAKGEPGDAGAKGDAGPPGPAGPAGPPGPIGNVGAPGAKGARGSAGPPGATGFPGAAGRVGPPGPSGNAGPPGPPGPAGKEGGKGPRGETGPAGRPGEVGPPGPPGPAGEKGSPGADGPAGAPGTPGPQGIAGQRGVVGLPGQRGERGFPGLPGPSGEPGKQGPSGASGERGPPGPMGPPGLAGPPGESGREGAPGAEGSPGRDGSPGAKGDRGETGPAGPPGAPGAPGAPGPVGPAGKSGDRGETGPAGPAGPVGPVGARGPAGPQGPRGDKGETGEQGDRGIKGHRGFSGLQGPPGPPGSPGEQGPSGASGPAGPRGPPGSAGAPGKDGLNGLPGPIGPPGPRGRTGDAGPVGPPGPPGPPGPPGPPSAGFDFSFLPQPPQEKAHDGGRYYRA
Chain of denatured human type I collagen (gelatin) (human) (P08123 80-1119, chain 2 of 2, further chain): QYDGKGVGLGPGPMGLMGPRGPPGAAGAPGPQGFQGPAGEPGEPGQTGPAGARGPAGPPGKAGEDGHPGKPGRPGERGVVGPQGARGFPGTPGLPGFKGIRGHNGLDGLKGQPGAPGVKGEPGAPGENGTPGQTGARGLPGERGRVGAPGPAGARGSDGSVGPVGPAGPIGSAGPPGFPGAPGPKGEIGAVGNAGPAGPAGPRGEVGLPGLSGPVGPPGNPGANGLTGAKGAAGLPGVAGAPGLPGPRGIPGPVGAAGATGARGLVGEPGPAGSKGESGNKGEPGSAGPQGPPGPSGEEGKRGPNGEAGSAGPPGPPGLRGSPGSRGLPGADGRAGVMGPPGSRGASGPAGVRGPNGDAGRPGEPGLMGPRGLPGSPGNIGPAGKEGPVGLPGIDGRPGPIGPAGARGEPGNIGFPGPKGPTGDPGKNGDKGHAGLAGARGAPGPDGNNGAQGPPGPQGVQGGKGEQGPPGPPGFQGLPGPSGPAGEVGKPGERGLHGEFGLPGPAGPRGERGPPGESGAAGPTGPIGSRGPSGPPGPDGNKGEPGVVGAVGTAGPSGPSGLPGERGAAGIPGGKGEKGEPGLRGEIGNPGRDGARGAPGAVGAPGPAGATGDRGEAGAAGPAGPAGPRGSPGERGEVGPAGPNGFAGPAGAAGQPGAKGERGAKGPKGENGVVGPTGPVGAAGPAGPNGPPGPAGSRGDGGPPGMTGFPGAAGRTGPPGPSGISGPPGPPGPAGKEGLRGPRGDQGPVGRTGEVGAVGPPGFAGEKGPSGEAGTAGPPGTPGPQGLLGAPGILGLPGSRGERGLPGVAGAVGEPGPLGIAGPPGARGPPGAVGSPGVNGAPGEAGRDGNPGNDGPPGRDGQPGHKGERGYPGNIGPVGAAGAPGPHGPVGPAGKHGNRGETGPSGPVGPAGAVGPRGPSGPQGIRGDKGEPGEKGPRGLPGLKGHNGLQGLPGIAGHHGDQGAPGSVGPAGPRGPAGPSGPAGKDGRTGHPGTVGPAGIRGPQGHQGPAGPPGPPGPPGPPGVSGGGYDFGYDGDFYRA
“MMP-2 F297A (variant of MMP-2Δpro, CBD module 2) (from UniProt P08253 30-660) (enzyme)”: the Kd came out at 2.8 nM.

The substance “MMP-2 F297A/R368A (variant of MMP-2Δpro, CBD modules 2+3) (from UniProt P08253 30-660) (enzyme)” returned a Kd of 37.6 nM.

On to “MMP-2 R252A (variant of MMP-2Δpro, CBD module 1) (from UniProt P08253 30-660) (enzyme)”, for which the Kd was found to be 2.58 nM.

For “MMP-2 R252A/F297A (variant of MMP-2Δpro, CBD modules 1+2) (from UniProt P08253 30-660) (enzyme)”, the Kd was found to be 5.84 nM.

As for “MMP-2 R252A/R368A (variant of MMP-2Δpro, CBD modules 1+3) (from UniProt P08253 30-660) (enzyme)”, the Kd is 7.49 nM.

For “MMP-2 R368A (variant of MMP-2Δpro, CBD module 3) (from UniProt P08253 30-660) (enzyme)”, the Kd was 3.56 nM.

Substance “MMP-2Δpro (constitutively active matrix metalloproteinase-2 without the prodomain; wild-type) (from UniProt P08253 30-660) (enzyme)” displayed a Kd of 1.03 nM.
